Laboratory results published in paper PMC11564011 (Heliyon, 2024).

Key:
[1] = molecular target: mFc-tag CD47 antigen (human) (UniProt Q08722); assay: ELISA
His-tag PD-L1 antigen [2] = molecular target: T1, His-tag PD-L1 antigen (Homo sapiens, UniProt Q9NZQ7); assay: BLI
PD-L1 on CHO-PD-L1 cells [3] = molecular target: T2, PD-L1 on CHO-PD-L1 cells (human, UniProt Q9NZQ7); assay: flow cytometry on cells
[4] = molecular target: mFc-tag CD47 antigen (human) (UniProt Q08722); assay: BLI
PD-L1 on CHO-PD-L1 cells [5] = molecular target: T2, PD-L1 on CHO-PD-L1 cells; assay: flow cytometry on cells; remark: listed apart in the source
[6] = molecular target: T3, PD-L1 on CD47+/PD-L1+ tumor cells (RKO, ES-2, HT-1080, HCC827) (human (endogenous in RKO, ES-2, …, UniProt Q9NZQ7)); assay: flow cytometry on cells
T3 sequence (Q9NZQ7 19-290): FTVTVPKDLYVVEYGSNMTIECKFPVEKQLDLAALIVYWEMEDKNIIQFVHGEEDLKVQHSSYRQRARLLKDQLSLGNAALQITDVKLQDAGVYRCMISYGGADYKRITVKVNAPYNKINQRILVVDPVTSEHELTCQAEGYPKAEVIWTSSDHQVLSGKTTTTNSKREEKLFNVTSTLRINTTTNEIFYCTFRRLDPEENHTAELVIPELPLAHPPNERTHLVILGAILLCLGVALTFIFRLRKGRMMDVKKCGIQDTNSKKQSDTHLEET

[7] = molecular target: T3, PD-L1 on CD47+/PD-L1+ tumor cells (RKO, …); assay: flow cytometry on cells; remark: listed apart in the source
His-tag PD-L1 antigen [8] = molecular target: T1, His-tag PD-L1 antigen; assay: ELISA

Chain of mFc-tag CD47 antigen (human) (Q08722 19-323): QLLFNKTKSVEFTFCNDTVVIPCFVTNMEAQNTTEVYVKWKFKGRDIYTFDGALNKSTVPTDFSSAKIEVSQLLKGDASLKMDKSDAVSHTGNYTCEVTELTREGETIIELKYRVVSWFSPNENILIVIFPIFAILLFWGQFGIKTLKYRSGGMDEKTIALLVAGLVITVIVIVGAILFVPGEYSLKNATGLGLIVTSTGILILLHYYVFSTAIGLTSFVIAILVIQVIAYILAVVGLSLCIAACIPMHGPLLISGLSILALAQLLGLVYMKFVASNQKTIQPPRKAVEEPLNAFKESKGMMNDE
T2 sequence (Q9NZQ7 19-290): as the sequence (Q9NZQ7 19-290) above
T1 sequence (Q9NZQ7 19-238): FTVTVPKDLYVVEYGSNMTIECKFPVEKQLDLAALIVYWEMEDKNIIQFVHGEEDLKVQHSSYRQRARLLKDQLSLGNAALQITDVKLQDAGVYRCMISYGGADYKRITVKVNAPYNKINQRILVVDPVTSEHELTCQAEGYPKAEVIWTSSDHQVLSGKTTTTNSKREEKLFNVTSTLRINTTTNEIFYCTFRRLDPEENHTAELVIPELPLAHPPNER

B1: IMM2520 (bispecific antibody, V domains shown)
VH: QVQLVQSGAEVKKPGASVKVSCKASGYTFTSNWMHWVRQAPGQGLEWMGMIHPNSGSSNYNEKFKSRVTMTRDTSTSTVYMELSSLRSEDTAVYYCARSYYGSSPYYFDYWGQGTLVTVSS
VL: DIQMTQSPSSLSASVGDRVTITCRASQDIINYLNWYQQKPGKAPKLLIYYTSRLHSGVPSRFSGSGSGTDFTFTISSLQPEDIATYYCQQGDTLPWTFGQGTKVEIK
EC50 [1]: 0.079 nM
Kd (His-tag PD-L1 antigen [2]): 0.576 nM
EC50 (PD-L1 on CHO-PD-L1 cells [3]): 0.845 nM
Kd [4]: 2.49 nM
IC50 (PD-L1 on CHO-PD-L1 cells [5]): 0.121 nM
EC50 [6]: 0.145 nM
IC50 [7]: 0.0123 nM
EC50 (His-tag PD-L1 antigen [8]): 0.456 nM
